We go through 97 substances from the supplement of paper PMC12042874.

± gives the uncertainty stated by the source.

This data set is described as follows: amyloid nucleation score (Sup35N fusion, yeast selection) (log enrichment); library NNK3; higher = more nucleation; inactive = no reads after selection. Put shortly:
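Yeast lacking psi expressed peptides of 20 random codons fused to Sup35N, received 100 μM copper sulfate for 24 hours, and were then grown for 7 days at 30°C on medium lacking adenine and uracil. Illumina sequencing of input and output plasmid inserts provided the reads. Nucleation scores are DiMSum log enrichments of output over input, centred on the mode of non-aggregating sequences. Any sequence with under 100 input reads was excluded.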
In the case of RSMKLPAKTASLLH, the amyloid nucleation score entry is “inactive”.

As to RSMRSQSSLQAHQSIRSEGR, the amyloid nucleation score result is “inactive”.

Regarding RSPEDFSGTCHAGRCSWVHG, the amyloid nucleation score was -0.044 ± 0.39.

Substance RSRLCWED showed an amyloid nucleation score of -0.029 ± 0.5.

Consider RSSSASR, for which the amyloid nucleation score result was “inactive”.

Take RSSVYGQLILVPHYFDCLNL: the amyloid nucleation score result was “inactive”.

Regarding RSVLLKVHTWITKSCFSTGL, the amyloid nucleation score result is “inactive”.

With RSVNGVTLGTARYHAVERVL, the amyloid nucleation score result was “inactive”.

Consider RSVQSVFNTIGCQTYVSPVW, for which the amyloid nucleation score entry is “inactive”.

For RSWIGTKGPL, the amyloid nucleation score entry is “inactive”.

Regarding RSYGR, the amyloid nucleation score entry was “inactive”.

As for RTFVNGSAEYANASHWEYPN, the amyloid nucleation score entry is “inactive”.

As for RTFWNSYWTGMVLRADWIMR, the amyloid nucleation score result was “inactive”.

Take RTLLGEEWLCSVEMEVVGGQ: the amyloid nucleation score result was “inactive”.

As to RTLSNFSGKVVLLI, the amyloid nucleation score result is “inactive”.

Turning to RTRFFSQFSSL, the amyloid nucleation score result was “inactive”.

For the substance RTSVYAALSWGEAVLREVFE, the amyloid nucleation score entry is “inactive”.

Take RTVKNSRLGTMIVY: the amyloid nucleation score entry was “inactive”.

Regarding RTWDYVLLGLLLLDYYRILA, the amyloid nucleation score entry was “inactive”.

On to RTWIRAYVSMQFRMCQDTDV, for which the amyloid nucleation score entry is “inactive”.

On to RTWSAKGYDNIRDVGLNSES, for which the amyloid nucleation score entry is “inactive”.

In the case of RTYDVCQTRVCKRAKWEGDT, the amyloid nucleation score result is “inactive”.

As to RTYMVII, the amyloid nucleation score entry is “inactive”.

RVCCVGYLSNLLTMKGTGID displayed an amyloid nucleation score of 1.81 ± 0.059.

On to RVFGCKKGGSRLW, for which the amyloid nucleation score entry was “inactive”.

Take RVHFVYIRWFYVRRDGWFSG: the amyloid nucleation score result was “inactive”.

The substance RVIKVGHMFKWSRAVGGGKT came in with an amyloid nucleation score of -0.514 ± 1.7.

As for RVIMKIIVTFTA, the amyloid nucleation score amounted to 0.832 ± 0.23.

Substance RVIRHPAI came in with an amyloid nucleation score of -0.461 ± 0.96.

With RVKASSFQISMMTDALKFWC, the amyloid nucleation score entry was “inactive”.

As for RVKRYSMELGIFLDLRVT, the amyloid nucleation score result was “inactive”.

As for RVLGKRGGRKH, the amyloid nucleation score entry was “inactive”.

Turning to RVRIKTWYRMMGYMLCWCEL, the amyloid nucleation score result is “inactive”.

RVRVYYGQDWYYKMLLARTI came in with an amyloid nucleation score of -0.379 ± 0.84.

For RVTVPDVDCGKASWSPGKVC, the amyloid nucleation score result is “inactive”.

For RVYKSV, the amyloid nucleation score entry was “inactive”.

The substance RWCMVIDSTNWCSCDRKHGA yielded an amyloid nucleation score of 1.49 ± 0.13.

Turning to RWKMTCFSSYNG, the amyloid nucleation score result is “inactive”.

In the case of RWSRGMVSNCRENATWYDAA, the amyloid nucleation score entry was “inactive”.

As to RWTNNRSEIGAPYGWPTAS, the amyloid nucleation score result is “inactive”.

Consider RYDLSVSIATMVNVYFLLRG, for which the amyloid nucleation score entry was “inactive”.

For RYDTNSRVRIIVSNF, the amyloid nucleation score entry was “inactive”.

For RYHYLSSLSMNVNTGELWMD, the amyloid nucleation score result is “inactive”.

As to RYKAVRRKYPGCRLGWMRPL, the amyloid nucleation score result is “inactive”.

RYKEFVGNSIRIPDTCLSCC: the amyloid nucleation score result was “inactive”.

As for RYKGFINVLC, the amyloid nucleation score result is “inactive”.

RYLLIPAVGLK: the amyloid nucleation score entry was “inactive”.

With RYLPRTSFPTIL, the amyloid nucleation score result was “inactive”.

In turn, RYSYLGVCIKMSRKVKCVVT returned an amyloid nucleation score of 0.086 ± 0.66.

With RYTMAVWRLMSCNSVKSVAL, the amyloid nucleation score result is “inactive”.

In the case of RYTWTTDYNVM, the amyloid nucleation score result is “inactive”.

As for RYVLR, the amyloid nucleation score entry was “inactive”.

Take RYVRCNRMWIIDLDEHARGK: the amyloid nucleation score entry is “inactive”.

On to RYYNYVSHIPAHRAVTLSAT, for which the amyloid nucleation score entry was “inactive”.

In the case of RYYSDNDYAMQLLLEHTALY, the amyloid nucleation score entry was “inactive”.

On to SAGWMSTKVSVQLTNYPGLA, for which the amyloid nucleation score is 1.33 ± 0.16.

For the substance SAIFDGEQERSRDMLL, the amyloid nucleation score entry was “inactive”.

As for SALPE, the amyloid nucleation score entry is “inactive”.

In the case of SASRKNNQDVCGNCAVVGEF, the amyloid nucleation score result is “inactive”.

In the case of SAVRHRLWVVGLASTRLYEC, the amyloid nucleation score is -0.24 ± 1.1.

For the substance SAVSTRW, the amyloid nucleation score entry is “inactive”.

With SAWVIIIMLARYVAIS, the amyloid nucleation score entry is “inactive”.

As to SAYLELLLRSFAVICNLSLT, the amyloid nucleation score was 2.31 ± 0.061.

On to SAYSSGLRSKAYLYTASCTP, for which the amyloid nucleation score result is “inactive”.

Turning to SAYSVHLSSVHFELVVET, the amyloid nucleation score result was “inactive”.

Substance SAYYCLCMLMGHHWGRNELY returned an amyloid nucleation score of 0.277 ± 0.57.

Regarding SCAYGLGCMLMVKHN, the amyloid nucleation score entry is “inactive”.

Regarding SCDLFSC, the amyloid nucleation score result was “inactive”.

SCECSSNMGEAFRKLVGTSA: the amyloid nucleation score result was “inactive”.

Regarding SCFGECCI, the amyloid nucleation score result is “inactive”.

Take SCFQQGNFWCSVFFNVGGQL: the amyloid nucleation score amounted to 2.64 ± 0.059.

The substance SCFSSYCRYNLRLSWRQNFV registered an amyloid nucleation score of -0.474 ± 1.

Consider SCGEYWPLLSFMNCWAP, for which the amyloid nucleation score entry is “inactive”.

As for SCGLGLLAVVEKCVVTHRFF, the amyloid nucleation score result was “inactive”.

SCGLLWCD displayed an amyloid nucleation score of -0.43 ± 1.2.

As for SCGTCKTSFIKR, the amyloid nucleation score result is “inactive”.

Turning to SCIRNSLRLNSFSVFFLAFH, the amyloid nucleation score entry was “inactive”.

SCKFITFRGGQVQLVNDEGM: the amyloid nucleation score result was “inactive”.

In the case of SCLFRILMQLSTTMNSSVFK, the amyloid nucleation score result is “inactive”.

The substance SCLRGNTAKFFSKVSRVCDK yielded an amyloid nucleation score of 0.133 ± 0.98.

On to SCRLSISFTGAGNVRCAKMM, for which the amyloid nucleation score entry is “inactive”.

SCSWHFIFCCNGLHMSVKKR: the amyloid nucleation score worked out at 1.66 ± 0.084.

In the case of SCYDVFSFYPSPFCLTNSVA, the amyloid nucleation score result was “inactive”.

As to SCYRVNLLGVYWRVMVDVLV, the amyloid nucleation score entry is “inactive”.

SDCCYRTYVEIQKWSLVF: the amyloid nucleation score entry was “inactive”.

SDCSIHKSGYVTDTACDVFD: the amyloid nucleation score result was “inactive”.

With SDDRIT, the amyloid nucleation score result was “inactive”.

Turning to SDGHFLCV, the amyloid nucleation score entry is “inactive”.

SDITSHLRHSNASNGSWNWL: the amyloid nucleation score entry was “inactive”.

In the case of SEAMFSIVLKECNGGACR, the amyloid nucleation score entry is “inactive”.

As to SEARCA, the amyloid nucleation score result was “inactive”.

As to SEASQRLLYTMVWTAHTQVM, the amyloid nucleation score result was “inactive”.

On to SEFCSNFNQFGC, for which the amyloid nucleation score entry is “inactive”.

On to SELHRNRPTKLGFCRYESQV, for which the amyloid nucleation score entry was “inactive”.

Regarding SENICLYT, the amyloid nucleation score result was “inactive”.

Regarding SETCWVIIYWYIGVKMFSRF, the amyloid nucleation score entry was “inactive”.

Turning to SEWKNTRNTHVLWYTSDSAT, the amyloid nucleation score result was “inactive”.
